T1: FcγRIIb (human, UniProt P31994 43-217, limits assumed)
T1 construct: also called FcγIIB; CD32
T1 sequence: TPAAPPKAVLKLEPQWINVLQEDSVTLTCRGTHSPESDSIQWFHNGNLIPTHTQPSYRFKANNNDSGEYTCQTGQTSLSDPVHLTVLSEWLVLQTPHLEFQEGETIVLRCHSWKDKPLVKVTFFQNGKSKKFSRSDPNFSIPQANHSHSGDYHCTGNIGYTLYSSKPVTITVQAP

T2: FcγRIIa type R (human, UniProt P12318 36-217)
T2 construct: also called FcγRIIaR; FcγRIIa(R)
T2 chain: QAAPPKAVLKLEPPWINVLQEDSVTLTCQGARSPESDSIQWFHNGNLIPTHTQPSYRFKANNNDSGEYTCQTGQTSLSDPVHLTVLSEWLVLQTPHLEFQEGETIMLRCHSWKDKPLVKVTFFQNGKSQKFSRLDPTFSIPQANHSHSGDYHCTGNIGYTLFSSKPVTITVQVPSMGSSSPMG

T3: FcγRIIb (human, UniProt P31994 43-217, limits assumed)
T3 construct: also called FcgRIIb; FcγIIB
T3 sequence: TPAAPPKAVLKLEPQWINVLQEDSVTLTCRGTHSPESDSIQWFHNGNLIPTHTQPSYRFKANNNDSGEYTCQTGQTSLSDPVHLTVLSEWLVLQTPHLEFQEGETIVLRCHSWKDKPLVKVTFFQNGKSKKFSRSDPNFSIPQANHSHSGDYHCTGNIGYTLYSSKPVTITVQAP

T4: FcγRIIa type H (human, UniProt P12318 36-217)
T4 construct: also called FcγRIIaH; FcγRIIH
T4 sequence: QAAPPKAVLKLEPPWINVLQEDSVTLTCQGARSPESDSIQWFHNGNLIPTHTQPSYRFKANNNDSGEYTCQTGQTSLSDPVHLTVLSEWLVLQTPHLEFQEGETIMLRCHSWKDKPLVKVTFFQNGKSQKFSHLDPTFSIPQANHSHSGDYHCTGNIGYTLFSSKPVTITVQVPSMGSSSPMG

T5: FcγRIIa type R (human, UniProt P12318 36-217)
T5 construct: also called FcγRIIaR; FcgRIIaR
T5 chain: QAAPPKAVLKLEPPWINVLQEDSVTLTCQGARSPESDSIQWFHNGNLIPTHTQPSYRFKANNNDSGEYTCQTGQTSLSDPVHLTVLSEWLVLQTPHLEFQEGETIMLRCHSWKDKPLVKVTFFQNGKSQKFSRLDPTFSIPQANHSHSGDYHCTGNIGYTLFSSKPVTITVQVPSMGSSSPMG


Experiments:
[1] = target: T1, FcγRIIb; experiment: ratio of SPR KD values, parent IL6R-B3/IL6R-L
Text: (§1) Furthermore, KD(IIaR)/KD(IIb) and KD(IIaH)/KD(IIb) in the table respectively represent the value obtained by dividing the KD value of each variant for FcγRIIaR by the KD value of each variant for FcγRIIb, and the value obtained by dividing the KD value of each variant for FcγRIIaH by the KD value of each variant for FcγRIIb. KD(IIb) of the parent polypeptide/KD(IIb) of the altered polypeptide refers to the value obtained by dividing the KD value of the parent polypeptide for FcγRIIb by the KD value of each variant for FcγRIIb.

[2] = target: T1, FcγRIIb; experiment: SPR (Biacore); KD for FcγRIIaH divided by KD for FcγRIIb of the same antibody; column head in Table 52-1
Text: as §1

[3] = target: T2, FcγRIIa type R; experiment: SPR (Biacore), method of Example 14
[4] = target: T1, FcγRIIb; experiment: SPR (Biacore), method of Example 14
[5] = target: T6, FcγRIIIa type V (human, UniProt P08637 17-208, limits assumed); experiment: SPR (Biacore), method of Example 14
T6 construct: also called FcγRIIIaV; FcγRIIIa(V)
T6 sequence (P08637 17-208 F176V limits assumed): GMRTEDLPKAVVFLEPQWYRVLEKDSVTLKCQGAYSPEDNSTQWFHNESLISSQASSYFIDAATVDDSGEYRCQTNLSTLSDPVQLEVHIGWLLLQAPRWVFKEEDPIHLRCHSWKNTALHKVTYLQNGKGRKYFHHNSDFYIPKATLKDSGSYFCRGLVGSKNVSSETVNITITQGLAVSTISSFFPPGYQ

[6] = target: T7, FcγRIa (human, UniProt P12314 16-292, limits assumed); experiment: SPR (Biacore), method of Example 14
T7 construct: also called CD64
T7 sequence (P12314 16-292 limits assumed): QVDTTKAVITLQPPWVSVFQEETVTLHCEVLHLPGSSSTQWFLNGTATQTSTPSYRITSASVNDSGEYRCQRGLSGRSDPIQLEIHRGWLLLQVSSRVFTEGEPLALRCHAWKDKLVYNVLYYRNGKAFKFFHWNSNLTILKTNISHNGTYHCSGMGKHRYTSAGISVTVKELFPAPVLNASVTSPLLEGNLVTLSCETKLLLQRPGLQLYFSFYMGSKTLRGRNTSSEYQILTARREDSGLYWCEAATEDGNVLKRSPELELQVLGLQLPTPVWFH

[7] = target: T1, FcγRIIb; experiment: SPR (Biacore); KD for FcγRIIaR divided by KD for FcγRIIb of the same antibody; column head in Table 52-1
Text: as §1

[8] = target: T3, FcγRIIb; experiment: SPR (Biacore), FcγR over captured antibody
[9] = target: T8, FcγRIa (human, UniProt P12314 16-292, limits assumed); experiment: SPR (Biacore), FcγR over captured antibody
T8 construct: also called FcgRIa; CD64
T8 sequence (P12314 16-292 limits assumed): as above

[10] = target: T4, FcγRIIa type H; experiment: SPR (Biacore), FcγR over captured antibody
[11] = target: T5, FcγRIIa type R; experiment: SPR (Biacore), FcγR over captured antibody
[12] = target: T9, FcγRIIIa type V (human, UniProt P08637 17-208, limits assumed); experiment: SPR (Biacore), FcγR over captured antibody
T9 construct: also called FcγRIIIaV; FcgRIIIaV
T9 sequence (P08637 other isoform, or with tags, fused parts or gaps limits assumed): as the sequence (P08637 17-208 F176V limits assumed) above, with A179S counted along it

KD(IIb) of the parent polypeptide/KD(IIb) of altered polypeptide [1] [fold] | KD(IIaH)/KD(IIb) [2] | Kd [3] [µM] | Kd [4] [µM] | Kd [5] [µM] | Kd [6] [µM] | KD(IIaR)/KD(IIb) [7] | Kd [8] [µM] | Kd [9] [µM] | Kd [10] [µM] | Kd [11] [µM] | Kd [12] [µM] | Binder
44.5 | 105 | 0.88 | 0.069 | 36 | 0.063 | 12.6 | – | – | – | – | – | IL6R-BP185/IL6R-L (antibody, human IgG1, Anti-IL-6R human IgG1 variant; copies: 2 + 2) heavy: QVQLQESGPGLVKPSETLSLTCAVSGHSISHDHAWSWVRQPPGEGLEWIGFISYSGITNYNPSLQGRVTISRDNSKNTLYLQMNSLRAEDTAVYYCARSLARTTAMDYWGEGTLVTVSSASTKGPSVFPLAPSSKSTSGGTAALGCLVKDYFPEPVTVSWNSGALTSGVHTFPAVLQSSGLYSLSSVVTVPSSSLGTQTYICNVNHKPSNTKVDKKVEPKSCDKTHTCPPCPAPDYLGDDSVFLFPPKPKDTLMISRTPEVTCVVVDVSHEDGEVKFNWYVDGVEVHNAKTKPREEQYNSTYRVVSVLTVLHQDWLNGKEYKCKVSNAALPKPIEKTISKAKGQPREPQVYTLPPSRDELTKNQVSLTCLVKGFYPSDIAVEWESNGQPENNYKTTPPVLDSDGSFFLYSKLTVDKSRWQQGNVFSCSVMHEALHNHYTQESLSLSP light: DIQMTQSPSSLSASVGDRVTITCRASQDISSYLNWYQQKPGKAPKLLIYYTSRLHSGVPSRFSGSGSGTDFTFTISSLQPEDIATYYCQQGNTLPYTFGQGTKVEIK
– | – | – | – | – | – | – | 0.89 | 0.049 | 37 | 16 | 58 | IL6R-BP911/IL6R-L (antibody, human IgG1, IgG1; Fc variant of IL6R-B3; copies: 2 + 2) heavy: QVQLQESGPGLVKPSETLSLTCAVSGHSISHDHAWSWVRQPPGEGLEWIGFISYSGITNYNPSLQGRVTISRDNSKNTLYLQMNSLRAEDTAVYYCARSLARTTAMDYWGEGTLVTVSSASTKGPSVFPLAPSSKSTSGGTAALGCLVKDYFPEPVTVSWNSGALTSGVHTFPAVLQSSGLYSLSSVVTVPSSSLGTQTYICNVNHKPSNTKVDKKVEPKSCDKTHTCPPCPAPELLGGDSVFLFPPKPKDTLMISRTPEVTCVVVDVSHEDPEVKFNWYVDGVEVHNAKTKPREEQYNSTYRVVSVLTVLHQDWLNGKEYKCKVSNKALPKPIEKTISKAKGQPREPQVYTLPPSRDELTKNQVSLTCLVKGFYPSDIAVEWESNGQPENNYKTTPPVLDSDGSFFLYSKLTVDKSRWQQGNVFSCSVMHEALHNHYTQESLSLSP light: DIQMTQSPSSLSASVGDRVTITCRASQDISSYLNWYQQKPGKAPKLLIYYTSRLHSGVPSRFSGSGSGTDFTFTISSLQPEDIATYYCQQGNTLPYTFGQGTKVEIK

Further lines, the binder ahead of its results:

Binder | KD(IIb) of the parent polypeptide/KD(IIb) of altered polypeptide [1] [fold] | KD(IIaH)/KD(IIb) [2] | Kd [3] [µM] | Kd [4] [µM] | Kd [5] [µM] | Kd [6] [µM] | KD(IIaR)/KD(IIb) [7] | Kd [8] [µM] | Kd [9] [µM] | Kd [10] [µM] | Kd [11] [µM] | Kd [12] [µM]
IL6R-BP126/IL6R-L (antibody, human IgG1, IgG1; Fc variant of IL6R-B3; copies: 2 + 2) heavy: QVQLQESGPGLVKPSETLSLTCAVSGHSISHDHAWSWVRQPPGEGLEWIGFISYSGITNYNPSLQGRVTISRDNSKNTLYLQMNSLRAEDTAVYYCARSLARTTAMDYWGEGTLVTVSSASTKGPSVFPLAPSSKSTSGGTAALGCLVKDYFPEPVTVSWNSGALTSGVHTFPAVLQSSGLYSLSSVVTVPSSSLGTQTYICNVNHKPSNTKVDKKVEPKSCDKTHTCPPCPAPELLGGDSVFLFPPKPKDTLMISRTPEVTCVVVDVSHEDPEVKFNWYVDGVEVHNAKTKPREEQYNSTYRVVSVLTVLHQDWLNGKEYKCKVSNLALPAPIEKTISKAKGQPREPQVYTLPPSRDELTKNQVSLTCLVKGFYPSDIAVEWESNGQPENNYKTTPPVLDSDGSFFLYSKLTVDKSRWQQGNVFSCSVMHEALHNHYTQESLSLSP light: DIQMTQSPSSLSASVGDRVTITCRASQDISSYLNWYQQKPGKAPKLLIYYTSRLHSGVPSRFSGSGSGTDFTFTISSLQPEDIATYYCQQGNTLPYTFGQGTKVEIK | – | – | – | – | – | – | – | 1.4 | 0.0074 | 45 | 11 | 56
IL6R-BP120/IL6R-L (antibody, human IgG1, IgG1; Fc variant of IL6R-B3; copies: 2 + 2) heavy: QVQLQESGPGLVKPSETLSLTCAVSGHSISHDHAWSWVRQPPGEGLEWIGFISYSGITNYNPSLQGRVTISRDNSKNTLYLQMNSLRAEDTAVYYCARSLARTTAMDYWGEGTLVTVSSASTKGPSVFPLAPSSKSTSGGTAALGCLVKDYFPEPVTVSWNSGALTSGVHTFPAVLQSSGLYSLSSVVTVPSSSLGTQTYICNVNHKPSNTKVDKKVEPKSCDKTHTCPPCPAPELLGGDSVFLFPPKPKDTLMISRTPEVTCVVVDVSHEDPEVKFNWYVDGVEVHNAKTKPREEQYNSTYRVVSVLTVLHQDWLNGKEYKCKVSNEALPAPIEKTISKAKGQPREPQVYTLPPSRDELTKNQVSLTCLVKGFYPSDIAVEWESNGQPENNYKTTPPVLDSDGSFFLYSKLTVDKSRWQQGNVFSCSVMHEALHNHYTQESLSLSP light: DIQMTQSPSSLSASVGDRVTITCRASQDISSYLNWYQQKPGKAPKLLIYYTSRLHSGVPSRFSGSGSGTDFTFTISSLQPEDIATYYCQQGNTLPYTFGQGTKVEIK | – | – | – | – | – | – | – | 1 | 0.0066 | 65 | 9.6 | 79
